Source: PMC2034482
Read-outs that look alike come from different tables or passages of the source.

T1: Pif1p (nuclear isoform) (Saccharomyces cerevisiae, UniProt P07271 40-859)
T1 sequence: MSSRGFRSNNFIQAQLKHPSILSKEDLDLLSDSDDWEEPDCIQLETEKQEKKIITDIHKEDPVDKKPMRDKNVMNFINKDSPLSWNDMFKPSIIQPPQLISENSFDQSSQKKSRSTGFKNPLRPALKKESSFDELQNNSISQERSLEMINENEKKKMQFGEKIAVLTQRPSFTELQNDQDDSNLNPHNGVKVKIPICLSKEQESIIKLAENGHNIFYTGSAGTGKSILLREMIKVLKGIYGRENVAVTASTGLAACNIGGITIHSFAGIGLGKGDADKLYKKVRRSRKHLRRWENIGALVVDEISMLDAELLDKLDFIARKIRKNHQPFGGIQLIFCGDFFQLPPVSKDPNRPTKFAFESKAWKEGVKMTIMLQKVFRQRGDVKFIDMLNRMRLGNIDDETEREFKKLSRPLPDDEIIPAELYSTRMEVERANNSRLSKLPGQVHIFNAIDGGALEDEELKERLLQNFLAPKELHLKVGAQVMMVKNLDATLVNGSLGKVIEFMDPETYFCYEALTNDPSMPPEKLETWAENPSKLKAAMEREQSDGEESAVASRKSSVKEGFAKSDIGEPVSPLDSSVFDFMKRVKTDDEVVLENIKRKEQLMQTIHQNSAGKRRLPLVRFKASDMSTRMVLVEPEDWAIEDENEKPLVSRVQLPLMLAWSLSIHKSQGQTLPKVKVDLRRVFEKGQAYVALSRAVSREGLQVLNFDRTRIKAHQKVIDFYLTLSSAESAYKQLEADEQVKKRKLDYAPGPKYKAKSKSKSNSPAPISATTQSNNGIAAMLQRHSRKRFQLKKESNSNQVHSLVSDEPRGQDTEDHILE

B1: D20 (dsDNA)
DNA 1: CGCCATGGTGATCCGAGTGC
DNA 2: CACTGGCCGTCTTACGGTCGGCACTCGGATCACCATGGCG
B2: R20 (DNA:RNA)
RNA: CGCCAUGGUGAUCCGAGUGC
DNA: B1 DNA 2
modifications: top strand RNA, bottom strand DNA
B3: fR20 (DNA:RNA)
RNA: CGCCAUGGUGAUCCGAGUGCAAAAAAAAAA
DNA: B1 DNA 2
modifications: top strand RNA, bottom strand DNA
B4: fD20 (dsDNA)
DNA 1: CGCCATGGTGATCCGAGTGCAAAAAAAAAA
DNA 2: B1 DNA 2

How the values were obtained:
[1] = target: T1, Pif1p (nuclear isoform); test: EMSA
[2] = target: T1, Pif1p (nuclear isoform); test: EMSA; remark: listed apart in the source

Row | Binder | Kd [1] [nM] | Kd [2] [nM]
1 | B1 | 100 | –
2 | B2 | 17 | –
3 | B3 | 52 | –
4 | B4 | 130 | 320
